Measured values as given in publication doi:10.1101/2025.10.31.685773 (bioRxiv, 2025).

Columns and labels:
[1] = target: TtCoAT (TT_C1083, CoA transferase from Thermus thermophilus HB27) with C-terminal (His)6-tag (Thermus thermophilus HB27) (UniProt Q72IP9); experiment: SEC
[2] = target: TtCoAT (TT_C1083, CoA transferase from Thermus thermophilus HB27) with C-terminal (His)6-tag (Thermus thermophilus HB27) (UniProt Q72IP9); experiment: cryo-EM structure
[3] = target: TtCoAT (TT_C1083, CoA transferase from Thermus thermophilus HB27) with C-terminal (His)6-tag (Thermus thermophilus HB27) (UniProt Q72IP9); experiment: cryo-EM structure; remark: listed apart in the source
[4] = target: the molecule itself; experiment: cryo-EM structure

Row | stoichiometry N [1] | stoichiometry N [2] | stoichiometry N [3] | Molecule | stoichiometry N [4]
1 | 4 | 2 | 2 | TtCoAT (TT_C1083, CoA transferase from Thermus thermophilus HB27) with C-terminal (His)6-tag (from UniProt Q72IP9 1-444) (enzyme) | –
2 | – | – | – | ADLP (TT_C1082, alanine dehydrogenase-like protein from Thermus thermophilus HB27) with N-terminal Strep-tag (natural protein) MEFGVPKERSGGEIPERRVPLTPQGVRELVASGHRVYVERGAGEGAGFPDEAYEEAGARLVGREEAFGRPQVVLKVARPTLEEVGLMRKNAVLMAFLHLAVAESPLVEAMAQKGLTAIGYELVGEEGRRPVLKAMSEIAGRMAPQLAGRLLEAPQGPGILLSGLVGIPPADVVVLGAGVLGRAAARAFLGAGASVHLLDRALPPLEEAAREAPGAITALVTQDRLERYVAFADVLVGAVAVPGERTPLLLTRGLLARMRPGSVLLDFSIDQGGVSETSRPGVYQEMGVTHFCLPNVPALVPRTASHALTATLLPYLLRIQEDPLALPGLRQGAYLLFGEKGGHLE | 6
